# Measured values taken from paper PMC7824274, “Separation of Coiled-Coil Structures in Lamin A/C Is Required for the Elongation of the Filament” (Cells, 2020).
# Where a chain is given by its changes, count along the chain named. Names may count otherwise.
# T1: lamin A/C 250-400 fragment, wild type, tag-free (human, UniProt P02545 250-400)
# T1 construct: lamin A/C, human, residues 250-400 (C-terminal part of coil 2); His-tag cleaved with TEV protease; also called lamin 250-400; coil 2 fragment; source: E. coli BL21 (DE3), purified (cobalt-Talon, TEV cleavage, HiTrap Q, SEC); not shown: His-tag, N-terminal, cleaved
# T1 sequence (looked up): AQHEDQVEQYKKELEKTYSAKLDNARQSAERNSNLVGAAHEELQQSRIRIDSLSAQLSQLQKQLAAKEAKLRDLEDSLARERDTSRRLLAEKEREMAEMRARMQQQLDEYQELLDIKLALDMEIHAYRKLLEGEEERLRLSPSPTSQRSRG
# B1: His-tagged lamin A/C 1-300 fragment, wild type (domain or fragment, human, UniProt P02545 1-300, looked up)
# chain: METPSQRRATRSGAQASSTPLSPTRITRLQEKEDLQELNDRLAVYIDRVRSLETENAGLRLRITESEEVVSREVSGIKAAYEAELGDARKTLDSVAKERARLQLELSKVREEFKELKARNTKKEGDLIAAQARLKDLEALLNSKEAALSTALSEKRTLEGELHDLRGQVAKLEAALGEAKKQLQDEMLRRVDAENRLQTMKEELDFQKNIYSEELRETKRRHETRLVEIDNGKQREFESRLADALQELRAQHEDQVEQYKKELEKTYSAKLDNARQSAERNSNLVGAAHEELQQSRIRID
# notes: lamin A/C, human, residues 1-300 (N-terminal head, coil 1a, L1, coil 1b and following residues); pProEx-HTa vector: a TEV protease cleavage site stands between the His-tag and the lamin residues; also called lamin 300 fragment; His-lamin 1-300 WT; source: E. coli BL21 (DE3), purified (cobalt-Talon, HiTrap Q, SEC); not shown: His-tag, N-terminal, kept
# B2: His-tagged lamin A/C 1-300 fragment, L59R (domain or fragment, human, UniProt P02545 1-300, looked up)
# chain: B1 chain with L59R
# notes: lamin A/C, human, residues 1-300 with the CDM1A mutation L59R; pProEx-HTa vector: a TEV protease cleavage site stands between the His-tag and the lamin residues; also called His-lamin 1-300 L59R; lamin 300 L59R; source: E. coli BL21 (DE3), purified (cobalt-Talon, HiTrap Q, SEC); not shown: His-tag, N-terminal, kept
# B3: His-tagged lamin A/C 1-300 fragment, I63S (domain or fragment, human, UniProt P02545 1-300, looked up)
# chain: B1 chain with I63S
# notes: lamin A/C, human, residues 1-300 with the EDMD mutation I63S; pProEx-HTa vector: a TEV protease cleavage site stands between the His-tag and the lamin residues; also called His-lamin 1-300 I63S; lamin 300 I63S; source: E. coli BL21 (DE3), purified (cobalt-Talon, HiTrap Q, SEC); not shown: His-tag, N-terminal, kept
# B4: His-tagged lamin A/C 1-300 fragment, L35V (domain or fragment, human, UniProt P02545 1-300, looked up)
# chain: B1 chain with L35V
# notes: lamin A/C, human, residues 1-300 with the EDMD mutation L35V; pProEx-HTa vector: a TEV protease cleavage site stands between the His-tag and the lamin residues; also called His-lamin 1-300 L35V; lamin 300 L35V; source: E. coli BL21 (DE3), purified (cobalt-Talon, HiTrap Q, SEC); not shown: His-tag, N-terminal, kept
# B5: His-tagged lamin A/C 1-300 fragment, Y45C (domain or fragment, human, UniProt P02545 1-300, looked up)
# chain: B1 chain with Y45C
# notes: lamin A/C, human, residues 1-300 with the EDMD mutation Y45C; pProEx-HTa vector: a TEV protease cleavage site stands between the His-tag and the lamin residues; also called His-lamin 1-300 Y45C; lamin 300 Y45C; source: E. coli BL21 (DE3), purified (cobalt-Talon, HiTrap Q, SEC); not shown: His-tag, N-terminal, kept
# B6: His-tagged lamin A/C 1-125 fragment, I63S (domain or fragment, human, UniProt P02545 1-125, looked up)
# chain: METPSQRRATRSGAQASSTPLSPTRITRLQEKEDLQELNDRLAVYIDRVRSLETENAGLRLRSTESEEVVSREVSGIKAAYEAELGDARKTLDSVAKERARLQLELSKVREEFKELKARNTKKEG
# notes: pProEx-HTa vector: a TEV protease cleavage site stands between the His-tag and the lamin residues; source: E. coli BL21 (DE3), purified (cobalt-Talon, HiTrap Q, SEC); not shown: His-tag, N-terminal, kept
# B7: His-tagged lamin A/C 1-125 fragment, L59R (domain or fragment, human, UniProt P02545 1-125, looked up)
# chain: B6 chain with L59R, S63I
# notes: pProEx-HTa vector: a TEV protease cleavage site stands between the His-tag and the lamin residues; also called His-lamin 1-125 L59R; source: E. coli BL21 (DE3), purified (cobalt-Talon, HiTrap Q, SEC); not shown: His-tag, N-terminal, kept
# B8: His-tagged lamin A/C 1-125 fragment, Y45C (domain or fragment, human, UniProt P02545 1-125, looked up)
# chain: B6 chain with Y45C, S63I
# notes: as for B6
# Target: the molecule itself
# Test: not stated; purified lamin 300 fragments in solution; how the dimeric state was found is not told
# Settings: not given
row,Binder,stoichiometry N
1,B1,2
2,B2,2
3,B3,2
4,B4,2
5,B5,2

# Target: T1, lamin A/C 250-400 fragment, wild type, …
# Test: pull-down; His-tagged lamin 1-125 variants on Ni-NTA resin as bait, lamin 250-400 as prey; 20 mM Tris-HCl pH 8.0 with 50 mM NaCl; SDS-PAGE
# Settings: both partners purified
row,Binder,binding result
1,B6,binds
2,B7,binds
3,B8,binds
